From the nanobody polyreactivity screen of Harvey et al. (2022) come the findings set out here.

This series can be described thus: yeast display, Sf9 membrane polyspecificity reagent, FACS + sequencing; frameworks hold sequencing errors. A digest of the protocol:
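Polyreactivity labels are assigned by the sorting gate from which each nanobody was recovered. The gates were low and high (top ~1%), set on anti-HA fluorescence for expression and streptavidin fluorescence for reagent binding. Before sorting, galactose-induced (36–48 hours) yeast display cells were stained for 1 hour at 4 °C with 10% biotinylated, detergent-solubilized Sf9 membrane reagent.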
“QVQLVESGGGLVQAGGSLRLSCAASGSTFYGYAMGWYRQAPGKERELVAAITYSGGSTYYADSVKGRFTISRDNAKNTVYLQMNSLKPEDTAVYYCAATWLWFRRYRYDYWGQGTQVTVSS”: the “polyreactivity (PSR sort gate)” value is given as “high polyreactivity”.
Take “QVQLVESGGGLVQAGGSLRLSCAASGSTFYHNAMGWYRPAPGKERELVAAISRADVSTYYADSVKGRFTISRDNAKNTVYLQMNSLKPEDTAVYFGAAYWYGSQYKWRYDYWGQGTQVTVSS”: the “polyreactivity (PSR sort gate)” value was “low polyreactivity”.
The same measure for “QVQLVESGGGLVQAGGSLRLSCAASGSTFYHNVMGWYRQAPGKERELVASIDTGDSTNYADSVKGRFTISRDNAKNTVYLQMNSLITEHTAVYYCNADSYPALNKRGYEYWGQGTQVTVSS”: “low polyreactivity”; for “QVQLVESGGGLVQAGGSLRLSCAASGSTFYHNVRGWYRPAPGKERELVASIDTGDSTNYADSVKGRFTISRDNAKNTVYFQMNSLTPEDTAVYYCNADSYAALNKRGYDYWGQGTQVTVSS”: “low polyreactivity”; for “QVQLVESGGGLVQAGGSLRLSCAASGSTFYINAMGWYRQAPGKERELVADITVRGGNTYYADSVKGRFTISRDNAKNTVYLQMNSLKPEDTAVYYCAADDWGFWYDYWGQGTQVTVSS”: “high polyreactivity”.
Turning to “QVQLVESGGGLVQAGGSLRLSCAASGSTFYINVMGWYIQAPGKERELVAAIRRRGGSTYYADSVKGRFTISRDNEKNTVYLQMNSLKPEDTAVYYCNAFSITFYDFNSWGQGTQVTVSS”, the “polyreactivity (PSR sort gate)” value is recorded as “low polyreactivity”.
For the sequence “QVQLVESGGGLVQAGGSLRLSCAASGSTFYIYAMGWYRQAPGKEREFFAAITWSGGRTFYADSVKGRFTISRDNAKNTVYFQMNSLKPEDTAVYYCAARFWSDKTGSRYYYWGQGTQVTVSS”, the “polyreactivity (PSR sort gate)” value is reported as “high polyreactivity”.
Turning to “QVQLVESGGGLVQAGGSLRLSCAASGSTFYIYAMGWYRQAPGKERELVAAITWRGGGTYYADSVKGRFTISRDNAKNTVYLEMNSLKPEDTAVYYCNADYPRSRGVKYDYWGQGTQVTVSS”, the “polyreactivity (PSR sort gate)” value is recorded as “high polyreactivity”.
On to “QVQLVESGGGLVQAGGSLRLSCAASGSTFYIYAMGWYRQAPGKERELVARISGSGGSTYYADSVKGRFTISRDNAKNTVELQMNSLKPEDTAVYYCAADDIYKYYQYYAFPYYRYDYWGQGTQVTVSS”, for which the “polyreactivity (PSR sort gate)” value is given as “low polyreactivity”.
Take “QVQLVESGGGLVQAGGSLRLSCAASGSTFYIYAMGWYRQAPGKERELVARISGSGGSTYYADSVKGRFTISRDNAKNTVYLQMNSLKPEDTAVYYCAADYIYKYYQYYAFPYYRYDYWGQGTQVTVSS”: the “polyreactivity (PSR sort gate)” value is recorded as “low polyreactivity”.
Consider “QVQLVESGGGLVQAGGSLRLSCAASGSTFYIYAMGWYRQAPGKERELVARISGSTDYADSVKGRFTISRDNAKNTVYLQMNSLKPEDTAVYYCAARYVYPYWYGDYYWGQGTQVTVSS”, for which the “polyreactivity (PSR sort gate)” value was “low polyreactivity”.
The same measure for “QVQLVESGGGLVQAGGSLRLSCAASGSTFYKYAMGWYRPAPGKESELVAAISRGGSTYYADSVKGRFTISRDNAKNTFYLQMNSLKPEDTAVYYCAAETVSYYSKYDYWGQGTQVTVSS”: “low polyreactivity”; for “QVQLVESGGGLVQAGGSLRLSCAASGSTFYKYAMGWYRQAPGKERELVAAITGSGGGTYYADSVKGRFTISRDNGKNTVYLQMNCLKPEDTAVYYCAARRVRSREAYDYWGQGTQVTVSS”: “high polyreactivity”; for “QVQLVESGGGLVQAGGSLRLSCAASGSTFYKYAMGWYRQAPGKERELVARISRGGGSTYYADSVKGRFTISRDNAKNTVYLQMNSLKPEDTAVYYCAAGVRGQNDGYYWGQGTEVTVSS”: “high polyreactivity”.
“QVQLVESGGGLVQAGGSLRLSCAASGSTFYLNAMGWYRQAPGKERELVAAIDYRGGSTYYADSVKGRFTISRDNAKNTVYLQMNSLKPEDTAVYYCNADYVYVHYQPGYYWGQGTQVTVSS”: the “polyreactivity (PSR sort gate)” value is “low polyreactivity”.
The same measure for “QVQLVESGGGLVQAGGSLRLSCAASGSTFYLNAMGWYRQAPGKERELVAAITVSGGSTYYADSVKGRFTISRDNAKNTVYLQMNSLKPEDTAVYYCARELLSPTYQRWYYYWGQGTQVTVSS”: “low polyreactivity”; for “QVQLVESGGGLVQAGGSLRLSCAASGSTFYLYAMGWYRQAPGKEREFVAAISWSGGRTYYAYSVKGRFTISRDNAKNTVYLQMNSLKPEDTAVYYCAARRRYTWQYTRYDMGYWGQGTQVTVSS”: “low polyreactivity”; for “QVQLVESGGGLVQAGGSLRLSCAASGSTFYLYAMGWYRQAPGKEREFVARISASGGNTYYADSVKGRFTISRDNAKNTVYLQMNSLKPEDTAVYSCAARVRGRNASDYDYYYWGQGTQVTVSS”: “high polyreactivity”.
Consider “QVQLVESGGGLVQAGGSLRLSCAASGSTFYLYAMGWYRQAPGKERELVAAISSGGRTYYADSVKGRFTISRDNAKNTVYLQMNRLKPEDTAVYYCAKVYRRRYYWGQGTQVNVSS”, for which the “polyreactivity (PSR sort gate)” value is on record as “high polyreactivity”.
As to “QVQLVESGGGLVQAGGSLRLSCAASGSTFYLYAMGWYRQAPGKERELVAAITFRGSRTYYADSVKGRFTISRDNAKNTVYLQMNRLKPEDTAVYYCAKEKYRTREHDSWGQGTQVTVSS”, the “polyreactivity (PSR sort gate)” value is reported as “low polyreactivity”.
Regarding “QVQLVESGGGLVQAGGSLRLSCAASGSTFYLYAMGWYRQAPGKERELVAAITYGGGSTYYADSVKGRFTISRDNAKNTVYLQMNSLKPEDTAVYYCAARWLYWPRYTSLVYTHRDSWGQGTQVTVSA”, the “polyreactivity (PSR sort gate)” value is listed as “low polyreactivity”.
As for “QVQLVESGGGLVQAGGSLRLSCAASGSTFYLYAMGWYRQAPGKERELVASITYSGASTYYADSVKGRFTISRDNAKNTVYLQMNSLKPEDTAVYYCAADQRGWFAVGSQRKYNYWGQGTQVTVSS”, the “polyreactivity (PSR sort gate)” value is recorded as “low polyreactivity”.
In the case of “QVQLVESGGGLVQAGGSLRLSCAASGSTFYLYTMGWYRQAPGKERELVAAISRSGGSTRYADSVKGRFTISRDNAKNTVYLQMNSLKPEDTAVYYCAARSTVYPRPHERDYWGQGTQVTVSS”, the “polyreactivity (PSR sort gate)” value is listed as “high polyreactivity”.
For “QVQLVESGGGLVQAGGSLRLSCAASGSTFYNYAMGWYRQAPGKERELVASISSSGGSTYADSVKGRFTISRDNAKNTVYLQMNSLKPEDTAVYYCARVRWIVPWYGPTDDYWGQGTQVTVSS”, the “polyreactivity (PSR sort gate)” value is reported as “low polyreactivity”.
Consider “QVQLVESGGGLVQAGGSLRLSCAASGSTFYPNAMGGYRQAPGKERELVATITQRGGTTYYADSVKGRFTISRDNAKNTVYLQMNSLKPEDTAVYYCNAGPVRLPYDSWGQGTQVTVSS”, for which the “polyreactivity (PSR sort gate)” value was “low polyreactivity”.
Next, “QVQLVESGGGLVQAGGSLRLSCAASGSTFYPNAMGWYRQAPGKERELVAAISRGTRTKYADSVKGRFTISRDNAKNTVYLQMNSLKPEDTAVYYCAADTGTGLDWGQGTQVNVSS”: “high polyreactivity”; “QVQLVESGGGLVQAGGSLRLSCAASGSTFYPNAMGWYRQAPGKERELVAAISWSGGRTYYADSVKGRFTISRDNAKNTVYLQMNSLKPEDTAVYYCNRYHRTSWRAKYDYWGQGTQVTVSS”: “high polyreactivity”; “QVQLVESGGGLVQAGGSLRLSCAASGSTFYPNAMGWYRQAPGKERELVAAITSGGSTYYADSVKGRFTSSRDNAKNTVYLQMTSLKPEDTAVYYCAAQRRYHQDTTIGPGNYSYWGQGTQVTVSS”: “low polyreactivity”.
Take “QVQLVESGGGLVQAGGSLRLSCAASGSTFYPNAMGWYRQAPGKERELVAVITRSGGSTYYADSVKGRFTISRDNAKNTVYLQMNSLKPEDTAVYYCNAAYRTAYYGPRYDYWGQGTQVTVSS”: the “polyreactivity (PSR sort gate)” value is reported as “high polyreactivity”.
On to “QVQLVESGGGLVQAGGSLRLSCAASGSTFYPTAMGWYRQAPGKERELVAAIRVRGGSTYYADSVKGRYTISRDNAKNTVYLKRNCLKPEDTAVYYCNADTFSSFGWGQGTQVTVSS”, for which the “polyreactivity (PSR sort gate)” value is given as “low polyreactivity”.
Consider “QVQLVESGGGLVQAGGSLRLSCAASGSTFYPYAMGWYRPAHGKERELVAAITSRVGRTYYADSVKGRFTISRDNAKNTVYLQMNSLKPEDTAVYYCAAKIFIRVHYYSYRMYYWGQGTQVTVSS”, for which the “polyreactivity (PSR sort gate)” value is “low polyreactivity”.
As for “QVQLVESGGGLVQAGGSLRLSCAASGSTFYPYAMGWYRPAPGKERELVASITLRGSSTYYADSVKGRFTISRDNAKNTVYLQMNSLKPEDTAVYYCAKEGYLYLWRYDYWGQGTQVTVSS”, the “polyreactivity (PSR sort gate)” value was “high polyreactivity”.
Take “QVQLVESGGGLVQAGGSLRLSCAASGSTFYPYAMGWYRQAPGKEREFVAGISRSGGTTYYADSVKGRFTISRDNAKNTVYLQMNSLKPEDTAVYYCAVQIPYVYWSYDYWGQGTQVTVSS”: the “polyreactivity (PSR sort gate)” value is “low polyreactivity”.
Consider “QVQLVESGGGLVQAGGSLRLSCAASGSTFYPYAMGWYRQAPGKEREFVARISVSAGRTYYADSVKGRFTISRDNAKNTVYLQMNSLKPEDTAVYYCAKGIPTFYGSPRYDYWGQGTQVTVSS”, for which the “polyreactivity (PSR sort gate)” value is “low polyreactivity”.
Consider “QVQLVESGGGLVQAGGSLRLSCAASGSTFYPYAMGWYRQAPGKERELVAAIDRGGSTSYADSVKGRFTISRDNAKNTVYLQMNSLKPEDTAVYYCAVARGGRRKYEYWGQGTQVTVSS”, for which the “polyreactivity (PSR sort gate)” value was “low polyreactivity”.
In the case of “QVQLVESGGGLVQAGGSLRLSCAASGSTFYPYAMGWYRQAPGKERELVAAISSGGSTSYADSVKGRFTISRDNAKNTVYLQMNSLKPEDTAVYYCAVDVAGGEGMDYWGQGTQVTVSS”, the “polyreactivity (PSR sort gate)” value was “low polyreactivity”.
Next, “QVQLVESGGGLVQAGGSLRLSCAASGSTFYPYAMGWYRQAPGKERELVAAISSGGSTYYADSVKGRFTISRDNAKNTVYLQMNSLKPEDTAVYYCAADFYYAYYWGQGTEVTVSS”: “low polyreactivity”; “QVQLVESGGGLVQAGGSLRLSCAASGSTFYPYAMGWYRQAPGNERELVAAITGTGGSTYYADSVKGRFTISRDNAKNTVYLQMNSLKPEDTAVYYCATRRRYYYSRYNYWGQGTQVTVSS”: “high polyreactivity”.
The same measure for “QVQLVESGGGLVQAGGSLRLSCAASGSTFYPYAMGWYSQAPGKERELVAAISSGGSTSYADSVKGRFTISRDNAKNTVYLQMNSLKPEDTAVYYCNASSPGAVPVYDYDYWGQGTQVTVSS”: “low polyreactivity”; for “QVQLVESGGGLVQAGGSLRLSCAASGSTFYQNAMGWYRQAPGKERELVAAISIGGGRTYYADSVKGRFTISRDNAKNTVYLQMNSLKPEDTAVYYCAAGPTGRYRREFRFDYLGQGTQVTVSS”: “low polyreactivity”.
On to “QVQLVESGGGLVQAGGSLRLSCAASGSTFYRNALGWYRQAPGKERELVARIYRSGSSTSYADSVKGRFTISRDYSKNTVYLQMNSLKPVDTAVYYCATVFVRYEMYWGQGTQLTVSS”, for which the “polyreactivity (PSR sort gate)” value was “high polyreactivity”.
